Test results: paper PMC8197028

Assays:
Assay in all cases: NMR
Asp46 = Asp46 (UniProt position 796, -LSDEDFKAVF); conditions: native (folded) state
Glu45 = Glu45 (UniProt position 795, --LSDEDFKAV); conditions: native (folded) state
Glu72 = Glu72 (UniProt position 822, QHLKKEKGLF-); conditions: native (folded) state
Asp44 [1] = conditions: isolated peptide fragments, largely unstructured; cited from earlier work
Asp44 [2] = molecular target: Asp44 (UniProt position 794, ---LSDEDFKA); conditions: native (folded) state; cited from earlier work
[3] = fully folded over the whole pH range

Substance | pKa (Asp46; [3]) | pKa (Glu45; [3]) | pKa (Glu72; [3]) | pKa (Asp44 [1]) | pKa (Asp46; cited from earlier work) | pKa (Asp44 [2]) | pKa (Glu45; cited from earlier work) | pKa (Glu72; cited from earlier work)
Villin headpiece helical subdomain HP36 D44N/K48M (not stated in the article (Gallus gallus inferred); D44N;K48M) | 3.49±0.08 | 4.39±0.05 | 4.37±0.03 |  |  |  |  | 
HP36 peptide fragment, residues 41-53 (not stated in the article (Gallus gallus inferred)) |  |  |  | 4.00 |  |  |  | 
Villin headpiece helical subdomain HP36 D44N (not stated in the article (Gallus gallus inferred); D44N) | 3.43±0.05 | 3.86±0.02 | 4.32±0.02 |  |  |  |  | 
Villin headpiece helical subdomain HP36 K48M (not stated in the article (Gallus gallus inferred); K48M) |  |  |  |  | 3.38±0.05 | 3.23±0.07 | 4.68±0.09 | 4.41±0.03
Villin headpiece helical subdomain HP36, wild type (not stated in the article (Gallus gallus inferred)) |  |  |  |  | 3.44±0.11 | 3.04±0.12 | 3.95±0.02 | 4.37±0.03
